Reference: PMC2172558 (The Journal of Cell Biology, 2004)

Biological target: T1, recombinant, purified Xenopus β-catenin (Xenopus, UniProt P26233 1-781)
T1 sequence: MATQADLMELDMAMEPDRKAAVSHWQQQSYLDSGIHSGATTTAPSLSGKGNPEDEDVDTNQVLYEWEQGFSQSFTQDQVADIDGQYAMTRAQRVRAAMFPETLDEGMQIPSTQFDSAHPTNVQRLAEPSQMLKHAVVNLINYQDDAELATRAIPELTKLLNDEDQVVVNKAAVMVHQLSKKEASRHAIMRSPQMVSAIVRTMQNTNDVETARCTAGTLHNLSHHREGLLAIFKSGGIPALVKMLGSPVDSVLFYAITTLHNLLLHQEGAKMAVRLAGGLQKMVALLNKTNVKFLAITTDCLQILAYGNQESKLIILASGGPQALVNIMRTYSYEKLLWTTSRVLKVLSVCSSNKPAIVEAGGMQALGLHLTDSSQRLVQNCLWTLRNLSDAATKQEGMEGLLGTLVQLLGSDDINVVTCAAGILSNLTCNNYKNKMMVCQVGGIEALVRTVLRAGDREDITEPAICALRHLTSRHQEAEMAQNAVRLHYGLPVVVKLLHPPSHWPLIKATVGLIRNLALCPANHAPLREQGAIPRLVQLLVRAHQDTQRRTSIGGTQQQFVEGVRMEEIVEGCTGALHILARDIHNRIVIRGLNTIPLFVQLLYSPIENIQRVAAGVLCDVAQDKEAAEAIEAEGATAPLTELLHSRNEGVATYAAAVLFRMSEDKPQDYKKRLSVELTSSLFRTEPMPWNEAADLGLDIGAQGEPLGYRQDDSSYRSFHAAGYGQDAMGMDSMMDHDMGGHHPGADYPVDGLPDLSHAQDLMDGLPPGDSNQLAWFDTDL
Experiment: pull-down

binding result: binds
B1: Xenopus C-cadherin cytoplasmic domain GST fusion protein (domain or fragment)
chain: not shown
